Paper PMC5818060, “A CK1 FRET biosensor reveals that DDX3X is an essential activator of CK1ε” (Journal of Cell Science, 2018)
Each block holds one binder with its values, some of them ahead of it. Ends that are not written are not given here. * marks the point of attachment. Biotin = O=C1N[C@H]2[C@H](CS[C@H]2CCCCC(=O)*)N1

Assays:
Conditions in all cases: both partners purified
His-DDX3X^414-582 [1] = target: T1, His-DDX3X^414-582 (human, UniProt O00571 414-582); assay: fluorescence thermal shift (FTS) assay; 10 µM His-DDX3X^414-582, 20 µM peptide, 50 mM HEPES pH 8, 10x SYPRO-Orange; change of melting temperature
T1 construct: DEAD box RNA helicase 3 X-linked (DDX3X), human, UniProt O00571, C-terminal helicase domain, aa 414-582; Named without the His tag in the BLItz methods; also called C-terminal helicase domain of DDX3X; source: dialyzed in 50 mM HEPES pH 8 for ELISA and FTS
T1 sequence (O00571 414-582): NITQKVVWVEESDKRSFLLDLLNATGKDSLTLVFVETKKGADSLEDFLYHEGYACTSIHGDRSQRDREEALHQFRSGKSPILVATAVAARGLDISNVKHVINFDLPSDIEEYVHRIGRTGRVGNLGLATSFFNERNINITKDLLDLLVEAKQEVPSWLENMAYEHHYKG

His-DDX3X^414-582 [2] = target: T1, His-DDX3X^414-582; assay: ELISA; His-DDX3X^414-582 coated on MaxiSorp plates (0.01 µg/µl, 100 mM sodium carbonate pH 9.6, 4°C overnight); biotinylated peptides 1 µg/well, 2.5 h at room temperature; detection with HRP-streptavidin
His-DDX3X^414-582 [3] = target: T1, His-DDX3X^414-582; assay: fluorescence thermal shift (FTS) assay; FTS with varying concentrations of peptide; melting temperatures fitted to single site or simple cooperative ligand binding, preferred model chosen
Flag-DDX3X = target: T2, Flag-DDX3X (human, UniProt O00571 1-662); assay: pull-down; purified Flag-DDX3X proteins, incubated with total RNA where indicated, subjected to bead-coupled HA-CK1ε; Western blot
T2 construct: DEAD box RNA helicase 3 X-linked (DDX3X), human, UniProt O00571, full length; pCS-based vector with N-terminal Flag tag; purification as in Cruciat et al., 2013; also called wild-type DDX3X; DDX3X WT; source: HEK293T, transfected, purified on Flag beads (high-salt wash, eluted with Flag peptide); not shown: Flag, N-terminal, kept
T2 sequence (O00571 whole entry): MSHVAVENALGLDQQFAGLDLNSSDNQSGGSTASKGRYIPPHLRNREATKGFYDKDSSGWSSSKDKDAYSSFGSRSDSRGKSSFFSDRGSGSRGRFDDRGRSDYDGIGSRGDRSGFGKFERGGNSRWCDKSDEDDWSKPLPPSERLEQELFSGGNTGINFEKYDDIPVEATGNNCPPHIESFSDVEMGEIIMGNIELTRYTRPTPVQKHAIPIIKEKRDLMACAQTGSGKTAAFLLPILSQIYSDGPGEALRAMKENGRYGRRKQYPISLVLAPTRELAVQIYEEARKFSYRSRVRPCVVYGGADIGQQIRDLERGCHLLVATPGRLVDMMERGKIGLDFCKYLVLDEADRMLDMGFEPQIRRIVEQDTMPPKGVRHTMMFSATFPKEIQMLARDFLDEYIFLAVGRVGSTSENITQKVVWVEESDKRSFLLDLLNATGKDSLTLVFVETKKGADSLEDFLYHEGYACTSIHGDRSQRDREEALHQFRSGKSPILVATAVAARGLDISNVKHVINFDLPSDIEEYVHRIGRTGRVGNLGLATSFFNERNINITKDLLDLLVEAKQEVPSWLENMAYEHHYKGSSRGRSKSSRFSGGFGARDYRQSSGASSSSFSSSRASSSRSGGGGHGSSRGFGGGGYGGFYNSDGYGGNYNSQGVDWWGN

B1: CK1ε-derived peptide ε-41 (peptide)
peptide: Biotin-SGSGCVKTKHPQLHIESKF
notes: four amino acid spacer between biotin and the peptide; casein kinase 1 epsilon (CK1ε), human, UniProt P49674; source: synthetic peptide (peptide library), pre-dissolved in DMSO; not shown: biotin, N-terminal, kept
- increase of the melting temperature (Tm) of His-DDX3X^414-582 (His-DDX3X^414-582 [1]): 6.3 °C

B2: CK1ε-derived peptide ε-241 (peptide)
peptide: Biotin-SGSGCKGYPSEFSTYLNFC
modifications: cysteine pairing not given here
notes: as for B1
- binding result (His-DDX3X^414-582 [2]): binds

B3: CK1δ-derived peptide δ-1 (peptide)
peptide: Biotin-SGSGMELRVGNRYRLGRKI
notes: four amino acid spacer between biotin and the peptide; casein kinase 1 delta (CK1δ), human, UniProt P48730; also called P1; source: synthetic peptide (peptide library), pre-dissolved in DMSO; not shown: biotin, N-terminal, kept
- Kd (His-DDX3X^414-582 [3]): 15.6 µM
- increase of the melting temperature (Tm) of His-DDX3X^414-582 (His-DDX3X^414-582 [1]): 3.5 °C

B4: CK1ε-derived peptide ε-1 (peptide)
peptide: Biotin-SGSGMELRVGNKYRLGRKI
notes: four amino acid spacer between biotin and the peptide; casein kinase 1 epsilon (CK1ε), human, UniProt P49674; differs from δ-1 only by K for R in the middle of the peptide; source: synthetic peptide (peptide library), pre-dissolved in DMSO; not shown: biotin, N-terminal, kept
- increase of the melting temperature (Tm) of His-DDX3X^414-582 (His-DDX3X^414-582 [1]): 4.6 °C

B5: HA-CK1ε (enzyme, human, UniProt P49674 1-416, looked up)
chain: MELRVGNKYRLGRKIGSGSFGDIYLGANIASGEEVAIKLECVKTKHPQLHIESKFYKMMQGGVGIPSIKWCGAEGDYNVMVMELLGPSLEDLFNFCSRKFSLKTVLLLADQMISRIEYIHSKNFIHRDVKPDNFLMGLGKKGNLVYIIDFGLAKKYRDARTHQHIPYRENKNLTGTARYASINTHLGIEQSRRDDLESLGYVLMYFNLGSLPWQGLKAATKRQKYERISEKKMSTPIEVLCKGYPSEFSTYLNFCRSLRFDDKPDYSYLRQLFRNLFHRQGFSYDYVFDWNMLKFGAARNPEDVDRERREHEREERMGQLRGSATRALPPGPPTGATANRLRSAAEPVASTPASRIQPAGNTSPRAISRVDRERKVSMRLHRGAPANVSSSDLTGRQEVSRIPASQTSVPFDHLGK
notes: casein kinase 1 epsilon (CK1ε), human, UniProt P49674; The methods name a pCS-based vector with N-terminal HA tag for human cell culture work; also called bead-coupled HA-CK1ε; casein kinase 1 epsilon; source: bead-coupled; not shown: HA, N-terminal, kept
- binding result (Flag-DDX3X): binds

B6: CK1δ-derived peptide δ-31 (peptide)
peptide: Biotin-SGSGAGEEVAIKLECVKTK
notes: four amino acid spacer between biotin and the peptide; casein kinase 1 delta (CK1δ), human, UniProt P48730; source: synthetic peptide (peptide library), pre-dissolved in DMSO; not shown: biotin, N-terminal, kept
- binding result (His-DDX3X^414-582 [2]): binds

Results, then the binder that gave them:

- binding result (His-DDX3X^414-582 [2]): binds
B7: CK1δ-derived peptide δ-91 (peptide)
peptide: Biotin-SGSGDLFNFCSRKFSLKTV
notes: as for B6

- binding result (His-DDX3X^414-582 [2]): binds
B8: CK1δ-derived peptide δ-141 (peptide)
peptide: Biotin-SGSGKGNLVYIIDFGLAKK
notes: as for B6

- binding result (His-DDX3X^414-582 [2]): binds
B9: CK1δ-derived peptide δ-231 (peptide)
peptide: Biotin-SGSGKKMSTPIEVLCKGYP
notes: as for B6

- binding result (His-DDX3X^414-582 [2]): binds
B10: CK1ε-derived peptide ε-61 (peptide)
peptide: Biotin-SGSGGGVGIPSIKWCGAEG
notes: as for B1
